Data reported in patent US11814447B2, “Peptide ligands for binding to EphA2” (BICYCLERD LIMITED, priority 2018, dated 2023).
Starred links: 1 amine or outer side, 2 acyl side, 3 side chain; linkers in the order of their positions; H or OH if unused. Positions of bridges follow the written chain, without caps; N, C: chain ends. Non-standard residues stand in square brackets, D forms with d. No end group written: not given here. ThiAz = 3-(1,2,4-triazol-1-yl)-alanine, O=C([C@H](Cn1cncn1)N[*:1])[*:2]; Ala(2-furyl) = N[C@@H](Cc1ccco1)C(=O)O; TBMB = c1c(C[*:1])cc(C[*:3])cc1C[*:2]; 2Thi = N[C@@H](Cc1cccs1)C(=O)O; Tle = CC(C)(C)[C@H](N)C(=O)O; Pip = O=C(O)[C@@H]1CCCCN1; Aze = O=C(O)[C@@H]1CCN1; Aib = CC(C)(N)C(=O)O; Sar = CNCC(=O)O

Molecular target: T1, Human EphA2 (Ecto) (Human, UniProt P29317 24-537)
T1 construct: extracellular domain
Experiment: FP competition, tracer Compound 18
Procedure: Peptides without a fluorescent tag were tested in competition with a peptide with a fluorescent tag and a known Kd (Table 2). Peptides were diluted to an appropriate concentration in assay buffer as described in the direct binding assay with a maximum of 5% DMSO, then serially diluted 1 in 2. […] Measurements were conducted as for the direct binding assay, however the gain was determined prior to the first measurement. Data analysis was in Systat Sigmaplot version 12.0 where the mP values were fit to a user defined cubic equation to generate a Ki value: […]

T1 sequence (P29317 24-537): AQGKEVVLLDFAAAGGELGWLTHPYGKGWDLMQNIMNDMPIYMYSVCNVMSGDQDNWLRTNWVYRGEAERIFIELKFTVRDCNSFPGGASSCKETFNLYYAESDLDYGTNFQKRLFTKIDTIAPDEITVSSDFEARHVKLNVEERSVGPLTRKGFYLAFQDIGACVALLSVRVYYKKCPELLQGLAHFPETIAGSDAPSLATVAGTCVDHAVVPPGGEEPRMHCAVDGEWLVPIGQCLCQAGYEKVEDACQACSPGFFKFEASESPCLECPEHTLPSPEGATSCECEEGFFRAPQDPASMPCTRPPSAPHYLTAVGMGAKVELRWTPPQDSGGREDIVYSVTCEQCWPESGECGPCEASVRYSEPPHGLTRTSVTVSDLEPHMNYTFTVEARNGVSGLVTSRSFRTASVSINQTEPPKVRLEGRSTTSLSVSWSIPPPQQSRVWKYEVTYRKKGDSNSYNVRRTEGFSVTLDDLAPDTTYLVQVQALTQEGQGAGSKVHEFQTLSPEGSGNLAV

Compared with Ac-[Sar][Sar]A[dH]DVPCPWGPAWCPVNRPGC (linker 8-15-22 via TBMB; also: A13 (ΨAla): reduced amide backbone bond) [Bicycle Compound 228], Ac-[Sar][Sar]A[dD]DVTCPWGPFWCPVNRPGC (linker 8-15-22 via TBMB) [Bicycle Compound 281] is 36-fold lower in Ki: 210 nM for the first, 5.78 nM for the second.

Ac-[Sar][Sar][dA]HDVPCPWGPFWCPVNRPGC (linker 8-15-22 via TBMB) [Bicycle Compound 194] and Ac-[Sar][Sar]A[dH]DVPCPWGPFWCPVNRPGC (linker 8-15-22 via TBMB) [Bicycle Compound 196] are within 1.5-fold of each other in Ki: 1.2 nM for the first, 0.95 nM for the second.

Compared with [Sar][Sar]A[dH]DVPCPWGPFWCPVNRPGC (linker 8-15-22 via TBMB) [Bicycle Compound 197], [Sar][Sar]A[2Thi]DVPCPWGPFWCPVNRPGC (linker 8-15-22 via TBMB) [Bicycle Compound 201] is 2-fold lower in Ki: 1.2 nM for the first, 0.6 nM for the second.

[Sar][Sar]A[ThiAz]DVPCPWGPFWCPVNRPGC (linker 8-15-22 via TBMB) [Bicycle Compound 202] and [Sar][Sar]A[Ala(2-furyl)]DVPCPWGPFWCPVNRPGC (linker 8-15-22 via TBMB) [Bicycle Compound 203] are within 1.5-fold of each other in Ki: 0.7 nM for the first, 0.49 nM for the second.

Going from Ac-[Sar][Sar]A[dH]D[Tle]PCPWGPFWCPVNRPGC (linker 8-15-22 via TBMB) [Bicycle Compound 204] to [Sar][Sar]AH[dD]VPCPWGPFWCPVNRPGC (linker 8-15-22 via TBMB) [Bicycle Compound 209], the Ki falls from 2.15 nM to 1.25 nM (1.7-fold). The second binds more tightly here.

First: Ac-[Sar][Sar]AH[dD]VPCPWGPFWCPVNRPGC (linker 8-15-22 via TBMB) [Bicycle Compound 210]
Second: Ac-[Sar][Sar]AH[dD][Tle]PCPWGPFWCPVNRPGC (linker 8-15-22 via TBMB) [Bicycle Compound 211]
The Ki of the first is 2.8-fold lower: 1.1 nM for the first, 3.1 nM for the second.

Compared with Ac-[Sar][Sar]AH[dD]V[Sar]CPWGPFWCPVNRPGC (linker 8-15-22 via TBMB) [Bicycle Compound 212], Ac-[Sar][Sar]AH[dD]V[Aib]CPWGPFWCPVNRPGC (linker 8-15-22 via TBMB) [Bicycle Compound 213] is 2.6-fold lower in Ki: 4.95 nM for the first, 1.9 nM for the second. The second binds more tightly here.

First: [Sar][Sar]AHD[Aib]PCPWGPFWCPVNRPGC (linker 8-15-22 via TBMB) [Bicycle Compound 216]
Second: [Sar][Sar]AHD[Tle]PCPWGPFWCPVNRPGC (linker 8-15-22 via TBMB) [Bicycle Compound 217]
The Ki of the first is 5.7-fold higher: 2.77 nM for the first, 0.49 nM for the second.

Going from [Sar][Sar]AHDV[Aib]CPWGPFWCPVNRPGC (linker 8-15-22 via TBMB) [Bicycle Compound 220] to [Sar][Sar]AHDV[Aze]CPWGPFWCPVNRPGC (linker 8-15-22 via TBMB) [Bicycle Compound 221], the Ki rises from 0.83 nM to 3.1 nM (3.7-fold).

[Sar][Sar]AHDV[Pip]CPWGPFWCPVNRPGC (linker 8-15-22 via TBMB) [Bicycle Compound 222] showed a Ki of 3.4 nM.
